Measured values taken from patent US20150344570A1 (published 2015).

T1: FcγRIIb extracellular domain with C-terminal His tag (human, UniProt P31994 43-217)
T1 construct: extracellular domain; also called FcgRIIb; 2b
T1 sequence (looked up): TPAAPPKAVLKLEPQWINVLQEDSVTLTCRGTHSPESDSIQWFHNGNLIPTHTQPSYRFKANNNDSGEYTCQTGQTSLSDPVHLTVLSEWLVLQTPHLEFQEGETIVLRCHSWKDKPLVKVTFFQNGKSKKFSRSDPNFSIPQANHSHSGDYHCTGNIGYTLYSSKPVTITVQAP


Biological target: T1, FcγRIIb extracellular domain with …
Experiment: SPR (Biacore), relative binding
Description: Analysis of interaction between objective antibody and the FcγR was carried out using Biacore T100 (GE Healthcare). HBS-EP+ (GE Healthcare) was used as the running buffer, and the measurement temperature was set to 25° C. Chips produced by immobilizing the antigen peptide by the amine coupling method to a Series S Sencor Chip CM5 (GE Healthcare), or alternatively, chips produced by allowing preliminarily biotinylated antigen peptides to interact with and immobilize onto a Series S Sensor Chip SA (certified) (GE Healthcare) were used. Antibodies of interest were captured onto an antigen peptide-immobilized chip, and allowed to interact to each FcγR diluted with running buffer. To regenerate and repeatedly use the chip, the antibodies captured on the chip were washed off by reacting 10 mM glycine-HCl, pH 1.5.

Binder | Ho/Con_2b
GpH7-B3 variant P238_16H/GpL16-k0 (antibody, human IgG1, kappa, also called Ho Ab P238_16H) heavy: not shown light: DIVMTQSPLSLPVTPGEPASISCQASESLVHSNRNTYLHWYLQKPGQSPQLLIYKVSNRFSGVPDRFSGSGSGTDFTLKISRVEAEDVGVYYCSQNTHVPPTFGQGTKVEIERTVAAPSVFIFPPSDEQLKSGTASVVCLLNNFYPREAKVQWKVDNALQSGNSQESVTEQDSKDSTYSLSSTLTLSKADYEKHKVYACEVTHQGLSSPVTKSFNRGEC | 18.8 % of HoCon Ab GpH7-B3/GpL16-k0
GpH7-B3 variant P331_07I/GpL16-k0 (antibody, human IgG1, kappa, also called Ho Ab P331_07I) heavy: not shown light: DIVMTQSPLSLPVTPGEPASISCQASESLVHSNRNTYLHWYLQKPGQSPQLLIYKVSNRFSGVPDRFSGSGSGTDFTLKISRVEAEDVGVYYCSQNTHVPPTFGQGTKVEIERTVAAPSVFIFPPSDEQLKSGTASVVCLLNNFYPREAKVQWKVDNALQSGNSQESVTEQDSKDSTYSLSSTLTLSKADYEKHKVYACEVTHQGLSSPVTKSFNRGEC | 63.3 % of HoCon Ab GpH7-B3/GpL16-k0
GpH7-B3 variant P271_10E/GpL16-k0 (antibody, human IgG1, kappa, also called Ho Ab P271_10E) heavy: not shown light: DIVMTQSPLSLPVTPGEPASISCQASESLVHSNRNTYLHWYLQKPGQSPQLLIYKVSNRFSGVPDRFSGSGSGTDFTLKISRVEAEDVGVYYCSQNTHVPPTFGQGTKVEIERTVAAPSVFIFPPSDEQLKSGTASVVCLLNNFYPREAKVQWKVDNALQSGNSQESVTEQDSKDSTYSLSSTLTLSKADYEKHKVYACEVTHQGLSSPVTKSFNRGEC | 95 % of HoCon Ab GpH7-B3/GpL16-k0
GpH7-B3 variant P331_03V/GpL16-k0 (antibody, human IgG1, kappa, also called Ho Ab P331_03V) heavy: not shown light: DIVMTQSPLSLPVTPGEPASISCQASESLVHSNRNTYLHWYLQKPGQSPQLLIYKVSNRFSGVPDRFSGSGSGTDFTLKISRVEAEDVGVYYCSQNTHVPPTFGQGTKVEIERTVAAPSVFIFPPSDEQLKSGTASVVCLLNNFYPREAKVQWKVDNALQSGNSQESVTEQDSKDSTYSLSSTLTLSKADYEKHKVYACEVTHQGLSSPVTKSFNRGEC | 86.6 % of HoCon Ab GpH7-B3/GpL16-k0
GpH7-B3 variant P331_06M/GpL16-k0 (antibody, human IgG1, kappa, also called Ho Ab P331_06M) heavy: not shown light: DIVMTQSPLSLPVTPGEPASISCQASESLVHSNRNTYLHWYLQKPGQSPQLLIYKVSNRFSGVPDRFSGSGSGTDFTLKISRVEAEDVGVYYCSQNTHVPPTFGQGTKVEIERTVAAPSVFIFPPSDEQLKSGTASVVCLLNNFYPREAKVQWKVDNALQSGNSQESVTEQDSKDSTYSLSSTLTLSKADYEKHKVYACEVTHQGLSSPVTKSFNRGEC | 71.5 % of HoCon Ab GpH7-B3/GpL16-k0

Next, values leading:

Ho/Con_2b | Binder
84.3 % of HoCon Ab GpH7-B3/GpL16-k0 | GpH7-B3 variant S239_06M/GpL16-k0 (antibody, human IgG1, kappa, also called Ho Ab S239_06M) heavy: not shown light: DIVMTQSPLSLPVTPGEPASISCQASESLVHSNRNTYLHWYLQKPGQSPQLLIYKVSNRFSGVPDRFSGSGSGTDFTLKISRVEAEDVGVYYCSQNTHVPPTFGQGTKVEIERTVAAPSVFIFPPSDEQLKSGTASVVCLLNNFYPREAKVQWKVDNALQSGNSQESVTEQDSKDSTYSLSSTLTLSKADYEKHKVYACEVTHQGLSSPVTKSFNRGEC
100 % of HoCon Ab GpH7-B3/GpL16-k0 | GpH7-B3 variant P331_16H/GpL16-k0 (antibody, human IgG1, kappa, also called Ho Ab P331_16H) heavy: not shown light: DIVMTQSPLSLPVTPGEPASISCQASESLVHSNRNTYLHWYLQKPGQSPQLLIYKVSNRFSGVPDRFSGSGSGTDFTLKISRVEAEDVGVYYCSQNTHVPPTFGQGTKVEIERTVAAPSVFIFPPSDEQLKSGTASVVCLLNNFYPREAKVQWKVDNALQSGNSQESVTEQDSKDSTYSLSSTLTLSKADYEKHKVYACEVTHQGLSSPVTKSFNRGEC
108 % of HoCon Ab GpH7-B3/GpL16-k0 | GpH7-B3 variant S239_03V/GpL16-k0 (antibody, human IgG1, kappa, also called Ho Ab S239_03V) heavy: not shown light: DIVMTQSPLSLPVTPGEPASISCQASESLVHSNRNTYLHWYLQKPGQSPQLLIYKVSNRFSGVPDRFSGSGSGTDFTLKISRVEAEDVGVYYCSQNTHVPPTFGQGTKVEIERTVAAPSVFIFPPSDEQLKSGTASVVCLLNNFYPREAKVQWKVDNALQSGNSQESVTEQDSKDSTYSLSSTLTLSKADYEKHKVYACEVTHQGLSSPVTKSFNRGEC
175 % of HoCon Ab GpH7-B3/GpL16-k0 | GpH7-B3 variant S239_10E/GpL16-k0 (antibody, human IgG1, kappa, also called Ho Ab S239_10E) heavy: not shown light: DIVMTQSPLSLPVTPGEPASISCQASESLVHSNRNTYLHWYLQKPGQSPQLLIYKVSNRFSGVPDRFSGSGSGTDFTLKISRVEAEDVGVYYCSQNTHVPPTFGQGTKVEIERTVAAPSVFIFPPSDEQLKSGTASVVCLLNNFYPREAKVQWKVDNALQSGNSQESVTEQDSKDSTYSLSSTLTLSKADYEKHKVYACEVTHQGLSSPVTKSFNRGEC
101 % of HoCon Ab GpH7-B3/GpL16-k0 | GpH7-B3 variant S298_06M/GpL16-k0 (antibody, human IgG1, kappa, also called Ho Ab S298_06M) heavy: not shown light: DIVMTQSPLSLPVTPGEPASISCQASESLVHSNRNTYLHWYLQKPGQSPQLLIYKVSNRFSGVPDRFSGSGSGTDFTLKISRVEAEDVGVYYCSQNTHVPPTFGQGTKVEIERTVAAPSVFIFPPSDEQLKSGTASVVCLLNNFYPREAKVQWKVDNALQSGNSQESVTEQDSKDSTYSLSSTLTLSKADYEKHKVYACEVTHQGLSSPVTKSFNRGEC
